Results on twelve molecules are retold here after PMC9508125, “The evolutionary advantage of an aromatic clamp in plant family 3 glycoside exo-hydrolases” (Nature Communications, 2022).

Substitutions are numbered along the chain they refer to. In names and notes the source's numbering stands.

Data set [1] deals with T1, HvExoI W434H mutant (Hordeum vulgare, UniProt Q9XEI3, W459H).
T1 sequence (Q9XEI3 26-630 W459H): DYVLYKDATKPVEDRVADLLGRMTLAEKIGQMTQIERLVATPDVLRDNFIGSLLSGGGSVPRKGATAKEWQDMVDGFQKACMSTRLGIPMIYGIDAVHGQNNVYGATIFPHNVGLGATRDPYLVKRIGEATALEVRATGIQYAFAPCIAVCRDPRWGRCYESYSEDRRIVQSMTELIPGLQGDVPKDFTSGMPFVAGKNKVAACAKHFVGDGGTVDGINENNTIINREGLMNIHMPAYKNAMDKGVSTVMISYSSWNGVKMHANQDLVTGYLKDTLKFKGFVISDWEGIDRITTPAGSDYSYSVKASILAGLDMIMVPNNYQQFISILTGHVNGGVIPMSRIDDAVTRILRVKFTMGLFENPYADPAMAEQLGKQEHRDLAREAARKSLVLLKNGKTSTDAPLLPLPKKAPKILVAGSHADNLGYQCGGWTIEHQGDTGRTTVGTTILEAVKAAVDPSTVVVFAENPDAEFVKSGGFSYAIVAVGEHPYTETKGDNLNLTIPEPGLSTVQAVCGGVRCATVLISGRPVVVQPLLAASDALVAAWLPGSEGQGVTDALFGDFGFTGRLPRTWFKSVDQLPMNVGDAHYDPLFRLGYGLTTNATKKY
In words: Relative rates of hydrolysis of poly-, oligosaccharides and aryl-glycosides. The format is biochemical. To be noted: substance is the substrate. The method, then: (§1) Dependency of activities of WT and mutant HvExoI on pH (McIlvaine buffers in the pH range of 3.5–8.5 at 30 °C) and temperature (100 mM sodium acetate buffer, pH 5.25, temperature range 0–80 °C, 15 min incubations) were determined using 0.2% (w/v) 4NP-Glc[21],[59]. Relative rates of hydrolysis of β-linked poly-, oligosaccharides, and aryl-glucosides were determined using near-homogenous HvExoI at 50 pmoles. […] Kinetic parameters were calculated from the analyses of Michaelis-Menten plots with Grafit 7.0.3[62] and processed by a proportional weighted fit, using nonlinear regression. The relative rates of hydrolysis, kinetic, and inhibition data were rounded to one or two decimal points (Supplementary Tables 2–4).

In data set [2] the target is T2, WT HvExoI (Hordeum vulgare, UniProt Q9XEI3). Described as above. The format is biochemical. The settings on record: substance is the substrate, HvExoI at 50 pmoles, nd = activity not detected. The method, then: as §1
The target in data set [3] is T3, HvExoI W286F/W434F mutant (Hordeum vulgare, UniProt Q9XEI3, W311F/W459F).
T3 sequence (Q9XEI3 26-630 W311F/W459F): T1 sequence (Q9XEI3 26-630 W459H) with W286F, H434F
The description is as above. To be noted: substance is the substrate, nd = activity not detected. The format is biochemical. The protocol:
as §1

Data set [4] addresses Native HvExoI (Hordeum vulgare, UniProt Q9XEI3). The data set can be described thus: Inhibition by thio-analogues using the 4NP-Glc substrate. The data set is classed as biochemical. To be noted: calculated according to ∆G = -RT ln [1/Ki]. The method, then:
as §1

The target of data set [5] is T2, WT HvExoI. The description is as above. The data set is classed as biochemical. To be noted: Recombinant WT; calculated according to ∆G = -RT ln [1/Ki]. The protocol: as §1
Substrate in data set [6]: O=[N+]([O-])c1ccc(O[C@@H]2O[C@H](CO)[C@@H](O)[C@H](O)[C@H]2O)cc1
The data set can be described thus: Steady-state apparent kinetic constants with substrates. The data set is classed as biochemical, Hordeum vulgare. To be noted: substance is the substrate, pH 5.25, 30.0 °C.

Substrate in data set [7]: OC[C@H]1O[C@@H](O[C@H]2[C@H](O)[C@@H](CO)OC(O)[C@@H]2O)[C@H](O)[C@@H](O)[C@@H]1O
Described as above. The data set is classed as biochemical, Hordeum vulgare. The settings on record: substance is the substrate, pH 5.25, 30.0 °C.

T2 sequence (Q9XEI3 entry or part of it): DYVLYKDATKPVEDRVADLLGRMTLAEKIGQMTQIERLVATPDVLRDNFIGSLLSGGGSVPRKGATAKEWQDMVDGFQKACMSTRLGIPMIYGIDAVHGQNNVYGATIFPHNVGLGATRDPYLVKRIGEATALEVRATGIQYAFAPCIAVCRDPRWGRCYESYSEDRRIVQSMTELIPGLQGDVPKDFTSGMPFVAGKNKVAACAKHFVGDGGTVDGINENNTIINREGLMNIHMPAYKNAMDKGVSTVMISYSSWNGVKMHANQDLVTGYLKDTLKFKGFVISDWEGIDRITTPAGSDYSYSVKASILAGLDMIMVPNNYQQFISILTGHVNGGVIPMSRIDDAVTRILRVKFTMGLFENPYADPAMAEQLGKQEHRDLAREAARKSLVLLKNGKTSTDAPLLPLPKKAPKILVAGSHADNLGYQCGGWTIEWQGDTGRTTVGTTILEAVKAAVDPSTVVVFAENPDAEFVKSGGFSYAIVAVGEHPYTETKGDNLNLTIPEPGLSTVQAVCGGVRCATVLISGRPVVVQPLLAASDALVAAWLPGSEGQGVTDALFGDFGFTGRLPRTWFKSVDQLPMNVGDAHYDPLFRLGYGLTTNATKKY
Native HvExoI, sequence (Q9XEI3 entry or part of it): as above

For lichenin, the results for the “Activity (relative rate of hydrolysis)” value in data set [1], in data set [2] and in data set [3] were 0.03 ± 0.01 μmole/min per mg protein, 0.8 ± 0.1 μmole/min per mg protein and 0.03 ± 0.001 μmole/min per mg protein, respectively.
Turning to `O=[N+]([O-])c1ccc(O[C@@H]2O[C@H](CO)[C@@H](O[C@@H]3O[C@H](CO)[C@@H](O)[C@H](O)[C@H]3O)[C@H](O)[C@H]2O)cc1` [4NP-cellobioside], the “Activity (relative rate of hydrolysis)” value was found to be 0.04 ± 0.001 μmole/min per mg protein in data set [1] and 0.9 ± 0.01 μmole/min per mg protein in data set [2].
As to `CO[C@@H]1O[C@H](CO)[C@@H](O)[C@H](O)[C@H]1S[C@@H]1O[C@H](CO)[C@@H](O)[C@H](O)[C@H]1O` [G2SG-OMe, methyl 2-thio-β-sophoroside], the ΔG in data set [4] is -3.75 kcal/mol; in data set [5] it was -3.32 kcal/mol.

B1: HvExoI W286F mutant (Hordeum vulgare subsp. vulgare; W311F) (protein)
chain: T1 sequence (Q9XEI3 26-630 W459H) with W286F, H434W
With B1, in data set [6] (other: W286F), the Km amounted to 2400 ± 300 µM, the kcat was found to be 1.9 ± 0.1 s⁻¹ and the kcat/Km came out at 800 ± 10 M⁻¹ s⁻¹. Also, in data set [7] (other: W286F), the Km amounted to 400 ± 40 µM, the kcat amounted to 2.6 ± 0.2 s⁻¹ and the kcat/Km was determined as 5800 ± 400 M⁻¹ s⁻¹.

B2: HvExoI W286F/W434A mutant (Hordeum vulgare subsp. vulgare; W311F/W459A) (protein)
chain: T1 sequence (Q9XEI3 26-630 W459H) with W286F, H434A
Take B2: in data set [6] (other: W286F/W434A), the Michaelis-Menten constant (Km) was 700 ± 40 µM, the kcat was found to be 1.9 ± 0.1 s⁻¹ and the kcat/Km was determined as 2500 ± 200 M⁻¹ s⁻¹. In data set [7] (other: W286F/W434A), the Km came out at 700 ± 200 µM, the kcat amounted to 0.2 ± 0.02 s⁻¹ and the kcat/Km came out at 200 ± 30 M⁻¹ s⁻¹.

B3: HvExoI W286Y mutant (Hordeum vulgare subsp. vulgare; W311Y) (protein)
chain: T1 sequence (Q9XEI3 26-630 W459H) with W286Y, H434W
Turning to B3, in data set [6] (other: W286Y), the Michaelis constant (Km) is 2000 ± 100 µM, the kcat stood at 28.8 ± 2.9 s⁻¹ and the catalytic efficiency (kcat/Km) came to 14600 ± 1500 M⁻¹ s⁻¹. In addition, in data set [7] (other: W286Y), the Km is 400 ± 40 µM, the kcat stood at 20.7 ± 1.7 s⁻¹ and the kcat/Km turned out to be 52600 ± 1500 M⁻¹ s⁻¹.

B4: WT HvExoI (Hordeum vulgare subsp. vulgare) (protein)
chain: T1 sequence (Q9XEI3 26-630 W459H) with H434W
B4: in data set [6] (other: WT), the Km stood at 2000 ± 150 µM, the kcat came out at 27.7 ± 2.5 s⁻¹ and the kcat/Km is 13900 ± 600 M⁻¹ s⁻¹.

B5: HvExoI W434A mutant (Hordeum vulgare subsp. vulgare; W459A) (protein)
chain: T1 sequence (Q9XEI3 26-630 W459H) with H434A
As to B5, in data set [6] (other: W434A), the Km was 500 ± 100 µM, the kcat is 9.5 ± 0.7 s⁻¹ and the kcat/Km was found to be 17600 ± 1800 M⁻¹ s⁻¹. Further, in data set [7] (other: W434A), the Km was found to be 2100 ± 200 µM, the kcat turned out to be 2.6 ± 0.2 s⁻¹ and the catalytic efficiency (kcat/Km) is 1300 ± 100 M⁻¹ s⁻¹.

B6: HvExoI W434F mutant (Hordeum vulgare subsp. vulgare; W459F) (protein)
chain: T1 sequence (Q9XEI3 26-630 W459H) with H434F
In the case of B6, in data set [6] (other: W434F), the Km worked out at 600 ± 40 µM, the kcat is 6.6 ± 0.7 s⁻¹ and the kcat/Km came out at 12700 ± 2100 M⁻¹ s⁻¹. In addition, in data set [7] (other: W434F), the Michaelis constant (Km) stood at 1700 ± 200 µM, the kcat is 17.1 ± 1.6 s⁻¹ and the kcat/Km was 9900 ± 1200 M⁻¹ s⁻¹.

B7: HvExoI W286F/W434F mutant (Hordeum vulgare subsp. vulgare; W311F/W459F) (protein)
chain: T1 sequence (Q9XEI3 26-630 W459H) with W286F, H434F
As for B7, in data set [6] (other: W286F/W434F), the Km came to 600 ± 100 µM, the kcat came to 0.7 ± 0.02 s⁻¹ and the specificity constant (kcat/Km) was 1200 ± 200 M⁻¹ s⁻¹. Also, in data set [7] (other: W286F/W434F), the Km was found to be 200 ± 20 µM, the kcat came to 0.5 ± 0.04 s⁻¹ and the catalytic efficiency (kcat/Km) is 3000 ± 600 M⁻¹ s⁻¹.

B8: HvExoI W434H mutant (Hordeum vulgare subsp. vulgare; W459H) (protein)
chain: T1 sequence (Q9XEI3 26-630 W459H)
As for B8, in data set [6] (other: W434H), the Km was 2200 ± 200 µM, the kcat was found to be 7.7 ± 0.6 s⁻¹ and the catalytic efficiency (kcat/Km) amounted to 3500 ± 400 M⁻¹ s⁻¹. In data set [7] (other: W434H), the Km was 1700 ± 400 µM, the kcat was 51.8 ± 2.0 s⁻¹ and the kcat/Km came to 31300 ± 7300 M⁻¹ s⁻¹.

B9: HvExoI W434Y mutant (Hordeum vulgare subsp. vulgare; W459Y) (protein)
chain: T1 sequence (Q9XEI3 26-630 W459H) with H434Y
On to B9, for which, in data set [6] (other: W434Y), the Km was determined as 300 ± 30 µM, the turnover number (kcat) was found to be 1.2 ± 0.1 s⁻¹ and the kcat/Km worked out at 3500 ± 400 M⁻¹ s⁻¹. For the same molecule, in data set [7] (other: W434Y), the Michaelis-Menten constant (Km) came out at 600 ± 100 µM, the turnover number (kcat) was found to be 2.0 ± 0.1 s⁻¹ and the kcat/Km was determined as 3300 ± 300 M⁻¹ s⁻¹.

For orientation: Km means the substrate concentration at which the rate is half of its maximum. One may read the kcat as the maximal rate divided by the concentration of active sites. The term kcat/Km denotes the turnover number divided by the Michaelis constant.
